Test results: patent US20190169635

Tested on: alpha-1 antitrypsin (AAT) in the serum of wild-type C57BL/6 mice

Substance: neutrophil elastase
- relative neutrophil elastase activity (colorimetric kinetics of substrate degradation) after incubation with serum: serum from wild-type male and female C57BL/6 mice exhibited a high capacity to inhibit neutrophil elastase, serum from the three founders showed a reduced capacity to do so
